Columns and labels:
[1] = tested on: human lung cancer cell line NCI-H292; assay: anti-tumor activity: NCI-H292 growth with stimulated PBMCs and ATP (IncuCyte); assay type: cell-based; conditions: NCI-H292 with PBMCs E/T 2, ATP 500 μM
Procedure: The human lung cancer cell line NCI-H292 having red fluorescent protein (RFP) was seeded on a 96-well plate and cultured overnight. The next day, after removal of the medium, IL-2 (Miltenyi, 130-097-745) at a final concentration of 30 IU as suspended in X-VIVO-15™ medium (Lonza, 04-418Q) and an anti-human CD39 antibody or isotype control antibody at a final concentration of 0.3 to 100 μg/mL were added and the mixture was incubated at 37° C. for 30 minutes. Then, PBMCs from healthy volunteers stimulated with Dynabeads™ Human T-Activator CD3/CD28 (VERITAS, DB11131) for 10 days were added at an E/T ratio of 2 and the mixture was incubated at 37° C. for 30 minutes. […] This made it possible to evaluate the anti-tumor activity of the antibody due to its ability to promote the cytotoxic activity of PBMCs.

human CD39 [2] = target: T1, human CD39 (Homo sapiens, UniProt P49961); assay: activity to inhibit CD39 enzyme (ATP hydrolysis by CD39-expressing cells, CellTiter-Glo); assay type: cell-based; set-up: CD39^hi-expressing human melanoma cell line SK-MEL-28 (ATCC, HTB-72) or human ovarian adenocarcinoma cell line OAW-42; endogenous in cells; host or cells: SK-MEL-28 (ATCC, HTB-72) or OAW-42 (CLS, 300304); conditions: SK-MEL-28 or OAW-42 cells, ATP 10 μM
T1 sequence (P49961 1-510): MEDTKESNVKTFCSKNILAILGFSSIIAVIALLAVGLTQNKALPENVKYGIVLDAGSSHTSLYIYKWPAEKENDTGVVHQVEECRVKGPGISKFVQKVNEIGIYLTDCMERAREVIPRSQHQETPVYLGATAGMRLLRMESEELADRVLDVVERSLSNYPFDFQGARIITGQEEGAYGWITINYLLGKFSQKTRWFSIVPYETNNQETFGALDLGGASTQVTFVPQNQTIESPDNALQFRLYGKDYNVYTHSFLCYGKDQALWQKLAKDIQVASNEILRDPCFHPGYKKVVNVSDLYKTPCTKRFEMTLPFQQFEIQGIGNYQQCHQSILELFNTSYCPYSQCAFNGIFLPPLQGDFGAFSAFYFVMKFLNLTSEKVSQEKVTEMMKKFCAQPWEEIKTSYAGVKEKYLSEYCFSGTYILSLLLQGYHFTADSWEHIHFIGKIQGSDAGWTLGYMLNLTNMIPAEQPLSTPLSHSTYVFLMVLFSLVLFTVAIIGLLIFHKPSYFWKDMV
Procedure: Two thousand SK-MEL-28 cells (ATCC, HTB-72), a CD39′-expressing line, suspended in 50 μl EMEM (Fujifilm, 055-08975) were seeded onto a 96-well V-bottom plate and incubated at 37° C. for 30 minutes with 150 μl of culture supernatant of single B cells. The cells were washed once with DPBS (Nacalai Tesque, 14249-24), then 100 μl of 5 μM ATP was added per well, and the mixture was incubated at 20° C. for 30 minutes. After centrifugation, 50 μl of the supernatant was separated, 50 μl CellTiter-Glo (Promega, G9243) was added and stirred, and after incubation at room temperature for 10 min, the amount of ATP was measured by chemiluminescence while using a microplate reader. The ability of B cell culture supernatant to inhibit CD39-mediated ATP hydrolysis was evaluated based on the amount of residual ATP.
The antibodies obtained in the above experiments were used to measure activity to inhibit CD39 enzyme by using the following procedure. […] After centrifugation, 50 μl of the supernatant was separated, 50 μl CellTiter-Glo was added and stirred, and after incubation at room temperature for 10 minutes, the level of chemiluminescence was measured using a microplate reader. Based on the amount of ATP consumed by SK-MEL-28 or OAW-42 cells, the ability of the antibody to inhibit CD39-mediated ATP hydrolysis was evaluated. […]

Cynomolgus monkey CD39 = assay: CD39 binding analysis (FCM) using Cynomolgus monkey CD39-overexpressing cells; conditions: 293T-cynoCD39 cells, 2 μg/ml antibody
Procedure: Binding to target antigen-expressing cells was analyzed using Cynomolgus monkey CD39-overexpressing cells. This analysis was used to check cross-reactivity. The Cynomolgus monkey CD39-overexpressing cells were generated using a lentiviral vector system (OriGene, PS100069). Lentiviral particles carrying the Cynomolgus monkey CD39 gene (Gene ID: 102132860) as the target gene together with the puromycin resistance gene were generated and used to infect HEK293T cells therewith. Then, the cells were cultured in the presence of puromycin. HEK293T cells (293T-cynoCD39) in which the target gene was integrated into the genome and which became positive for Cynomolgus monkey CD39 were collected and used for FCM analysis. The cells were reacted with 2 μg/ml test antibody or isotype control antibody, stained with a fluorescence-labeled secondary antibody, and evaluated for antibody binding based on the fluorescence intensity obtained by flow cytometry analysis.

Human CD39 antigen = target: T2, Human CD39 antigen (Homo sapiens, UniProt P49961); assay: affinity by surface plasmon resonance (SPR) analysis; conditions: Biacore 8K, 1:1 binding model
T2 sequence (P49961 1-510): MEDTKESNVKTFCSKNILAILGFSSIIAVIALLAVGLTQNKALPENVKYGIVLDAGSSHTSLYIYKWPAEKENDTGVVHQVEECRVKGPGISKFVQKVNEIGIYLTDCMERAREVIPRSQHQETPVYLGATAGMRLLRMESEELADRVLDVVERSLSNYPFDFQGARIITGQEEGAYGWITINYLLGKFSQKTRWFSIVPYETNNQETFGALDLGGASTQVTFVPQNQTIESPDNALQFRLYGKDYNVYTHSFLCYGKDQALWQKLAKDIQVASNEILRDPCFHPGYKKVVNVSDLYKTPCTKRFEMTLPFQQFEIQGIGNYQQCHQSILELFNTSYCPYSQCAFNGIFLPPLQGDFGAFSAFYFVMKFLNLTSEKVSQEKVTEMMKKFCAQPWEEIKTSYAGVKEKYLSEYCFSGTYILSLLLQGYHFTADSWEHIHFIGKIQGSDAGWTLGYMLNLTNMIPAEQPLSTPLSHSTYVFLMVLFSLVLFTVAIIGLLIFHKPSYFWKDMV
Procedure: Kinetics of each antibody against their target antigen were measured using Biacore 8K (Cytiva). Each antibody to be measured was immobilized on a sensor chip (CM5) using a Mouse Antibody Capture Kit, type 2 (Cytiva, 29215281) for mouse antibodies and a Human Antibody Capture Kit, Type 2 (Cytiva, 26234600) for chimeric and humanized antibodies, respectively. Human CD39 antigen was subjected to 4-step dilution from […] to prepare each solution, the contact time was set to 120 seconds, the dissociation time was set to 600 seconds, and the flow rate was set to 30 μl/min. Under these conditions, HBS-EP+ was used as the running buffer, and each sample was then analyzed using the 1:1 binding model of multi-cycle kinetics.

human CD39 [3] = target: T1, human CD39; assay: CD39 binding analysis (FCM) using human CD39-overexpressing cells; conditions: 293T-hCD39 or Jurkat-hCD39 cells
Procedure: 3.1 CD39 binding analysis (FCM analysis) (using human CD39) Binding to target antigen-expressing cells was analyzed by FCM analysis using human CD39-overexpressing cells. The human CD39-overexpressing cells were generated using a lentiviral vector system (OriGene, PS100069). Lentiviral particles carrying the human CD39 gene (Gene ID: 953) as the target gene together with the puromycin resistance gene were generated and used to infect HEK293T or Jurkat cells therewith. Then, the cells were cultured in the presence of puromycin. HEK293T or Jurkat cells ([…] or Jurkat-hCD39) in which the target gene was integrated into the genome and which became positive for human CD39 were collected and used for FCM analysis. Test or isotype control antibodies at a final concentration of 2 μg/mL or at the concentrations indicated in the figure were reacted with 1×10^5 cells for 15 minutes at 4° C., followed by washing twice with 0.5% BSA, 2 mM EDTA, and D-PBS. After washing, a fluorescent-labeled secondary antibody (anti-human IgG Fc, HP6017) was added, and the cells were stained at 4° C. for 15 minutes under light-shielded conditions, followed by washing twice in a similar manner. After addition of 7AAD (BioLegend, 420404), fluorescence intensity was measured using a flow cytometer (FACSVerse, BD). Antibody binding was evaluated based on the fluorescence intensity obtained.

B1: T-31414h1lala: anti-CD39 antibody with variable regions described in US2019/0062448, IgG1-lala constant region (antibody, V domains shown)
VH: QVQLVQSGAEVKKPGASVKVSCKASGYTFKSYEMHWVRQAPGQGLEWMGRINPSVGSTWYAQKFQGRVIMIRDTSTSTVYMELSSLRSEDTAVYYCARGKREGGTEYLRNWGQGTLVTVSS
VL: EIVLIQSPGILSLSPGERATLSCRASQSVSSSYLAWYQQKPGQAPRLLIYGASSRATGIPDRFSGSGSGTDFTLTISRLEPEDFAVYYCQQYHSYITFGGGTKVEIK
modifications: IgG1 LALA constant regions; T-31414 VH; T-31414 VL
notes: anti-CD39 antibody with variable regions described in US2019/0062448, IgG1-lala constant region
growth rate of cancer cells [1]: approximately 0.9

B2: HuP4_IB_sc: humanized scFvFc obtained by humanizing P4_sc (antibody, V domains shown)
VH: QVQLLESGPELVKPSATLSITCTVSGFSLTNYGVHWIRQAPGKGLEWLGVILRRGSTDYNAAFMSRFTISKDNSKNQVYFKLRSVTAEDTAVYYCAKTAVVAGDYFDYWGQGTMVTVSS
VL: DIQMTQSHSTLSLSVGDRVTITCKASQNVGTNVAWYQQKPGQPPKALIYSASYRYSGVPSRFSGSGSGTDFTLTISSVQAEDVAVYYCQQYNSYPLTFGPGTKLEIK
modifications: left off: another chain or arm of the molecule; a dimerising Fc or GST; small tags and cut ends
notes: humanized scFvFc obtained by humanizing P4_sc
CD39 inhibitory activity (human CD39 [2]): favorable CD39 inhibitory activity

B3: P4_sc: anti-CD39 scFvFc (Fc silent) from phage display (antibody, V domains shown)
VH: QVQLKESGPSLVQPSQSLSITCTVSGFSLTNYGVHWVRQSPGKGLEWLGVILRRGSTDYNAAFMSRLSITKDNSKSQVFFKMNSLQADDTAIYYCAKTAVVAGDYFDYWGQGTTLTVSS
VL: DIVMTQSHKFMSTSVGDRVSVTCKASQNVGTNVAWYQQKPGQSPKALIYSASYRYSGVPDRFTGSGSGTDFTLTISNVQSEDLAEYFCQQYNSYPLTFGTGTKLEIK
modifications: left off: another chain or arm of the molecule; a dimerising Fc or GST; small tags and cut ends
notes: anti-CD39 scFvFc (Fc silent) from phage display
binding to monkey CD39 (Cynomolgus monkey CD39): bound to monkey CD39 | affinity for human CD39 (KD) (Human CD39 antigen): favorable affinity | affinity for human CD39 on the cell surface (human CD39 [3]): favorable affinity | CD39 inhibitory activity (human CD39 [2]): activity to inhibit human CD39

Reference: patent US20250215105A1, “ANTI-CD39 ANTIBODY” (BrightPath Biotherapeutics Co., Ltd., priority 2022, published 2025)
